Measurements published in PMC6193743, “Phosphoglucomutase 1 inhibits hepatocellular carcinoma progression by regulating glucose trafficking”.

What was measured:
HIS-CNBP [1] = target: T1, HIS-CNBP (Homo sapiens, UniProt P62633 1-177); assay: competition; unlabeled G20 competes with biotin-G20; Chemiluminescent EMSA Kit (Thermo) binding buffer, room temperature, 20 min, 5% polyacrylamide gel; salt and pH not stated; details: protein: recombinant; tags: His (pET-28a); potential G4
HIS-CNBP [2] = target: T1, HIS-CNBP; assay: EMSA; Chemiluminescent EMSA Kit (Thermo) binding buffer, room temperature, 20 min, 5% polyacrylamide gel; salt and pH not stated; details: protein: recombinant; tags: His (pET-28a); potential G4

T1 sequence (P62633 whole entry): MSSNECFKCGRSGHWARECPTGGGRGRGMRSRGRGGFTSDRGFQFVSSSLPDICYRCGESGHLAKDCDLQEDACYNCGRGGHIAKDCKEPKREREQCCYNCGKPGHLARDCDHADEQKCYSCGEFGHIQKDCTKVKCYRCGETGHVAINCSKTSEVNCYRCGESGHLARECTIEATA

| Binder | binding result (HIS-CNBP [1]) | binding result (HIS-CNBP [2]) |
| --- | --- | --- |
| GGGCTGGCGCGGAGGGAGGG (ssDNA) [G20 unlabeled] | binds | – |
| GGGCTGGCGCGGAGGGAGGG (ssDNA) [Biotin-G20] | – | binds |
